# According to patent US20030148377A1, “Binding compounds and methods for identifying binding compounds” (priority 2000, published 2003):
# Legend:
# [1] = target: T1, ZAP-70 (Homo sapiens, UniProt P43403); assay: Inhibition of tubulin phosphorylation by ZAP-70; type: biochemical; conditions: tubulin (5 μM) as substrate; FIG. 1D; compared to peptide 4
# T1 construct: made in house; host or cells: Sf9 cells (baculovirus)
# T1 sequence (P43403 1-619): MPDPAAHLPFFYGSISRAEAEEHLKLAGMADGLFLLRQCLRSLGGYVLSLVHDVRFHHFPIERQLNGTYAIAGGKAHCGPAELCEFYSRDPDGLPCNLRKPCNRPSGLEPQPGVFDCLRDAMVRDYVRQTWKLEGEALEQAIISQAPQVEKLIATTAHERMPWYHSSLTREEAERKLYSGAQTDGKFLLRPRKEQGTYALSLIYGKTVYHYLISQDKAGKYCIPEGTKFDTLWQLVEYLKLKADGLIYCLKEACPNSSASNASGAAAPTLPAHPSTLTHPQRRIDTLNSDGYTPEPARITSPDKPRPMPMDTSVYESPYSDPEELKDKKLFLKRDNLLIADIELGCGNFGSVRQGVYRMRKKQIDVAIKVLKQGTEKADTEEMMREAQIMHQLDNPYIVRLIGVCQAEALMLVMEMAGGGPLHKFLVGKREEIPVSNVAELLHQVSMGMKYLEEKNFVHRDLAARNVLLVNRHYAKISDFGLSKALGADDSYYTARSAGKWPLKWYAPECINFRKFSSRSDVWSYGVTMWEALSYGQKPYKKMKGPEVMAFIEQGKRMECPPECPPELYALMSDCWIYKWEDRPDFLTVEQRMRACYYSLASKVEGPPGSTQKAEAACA
# Protocol: FIG. 1A: A glutathione-S-transferase chimera of ZAP-70 was purified from Sf9 cells and assayed for its ability to phosphorylate tubulin in the presence of 0, 50, or 100 μM of peptide 1 (SEQ ID NO: 5) or peptide 2 (SEQ ID NO: 6). The assay was carried out in kinase buffer (5 mM MnCl2, 5 mM MgCl2, 25 mM Tris [pH 7.4]), 50 μM ATP, and […] [γ-^32P]ATP for 5 min at 30° C. ^32P-phosphorylated tubulin was separated on SDS-PAGE, visualized by autoradiography (inset), and quantitated using a molecular imager (Bio-Rad).
# FIG. 1D: The ZAP-70 Tyr-kinase assay was as described above, using tubulin (5 μM) as substrate. […]
# (§1) Synthetic peptides, tubulin, or GST-band III (construct kindly provided by A. Weiss, University of California, San Francisco) (Zhao and Weiss, 1996) were phosphorylated by ZAP-70-GST-fused protein in the presence or absence of the indicated amount of inhibitory peptides in the kinase buffer (10 mM MnCl2, 50 mM Tris [pH 7.4], 1 mM DTT), 100 μM ATP, and 5 μCi [γ-^32P]ATP for 5 min (or 10 min for GST-band-III) at 30° C. The amount of radioactivity incorporated into substrate peptide was determined using the phosphocellulose assay. […] Phosphorylated tubulin, GST-band III, and myelin basic protein were separated on SDS-PAGE, visualized by autoradiography, and quantitated using a molecular imager (Bio-Rad, Hercules, Calif.).
# [2] = target: T1, ZAP-70; assay: Inhibition of ZAP-70 phosphorylation of peptide 1 (phosphocellulose assay, Lineweaver-Burke plot); type: biochemical; conditions: peptide 1 as substrate; FIG. 1B; compared to peptide 4
# Protocol: FIG. 1B: ZAP-70 was also assayed for its ability to phosphorylate peptide 1 (10 μM) in the presence of 0, 10, or 50 μM of peptide 4 (SEQ ID NO: 9) or peptide 5 (SEQ ID NO: 10). Peptide phosphorylation was determined by spotting the reaction mixture on phosphocellulose and washing away the ^32P-ATP with a phosphate buffer. The polylysine tail of peptide 1 facilitates retention on the phosphocellulose (Songyang et al., 1996). The data are presented as the percentage of the activity present in the absence of inhibitory peptides. […]
# as §1
# [3] = target: T2, Lck-GST-fused protein (Homo sapiens, UniProt P06239); assay: Inhibition of myelin basic protein phosphorylation by Lck; type: biochemical; conditions: myelin basic protein (5 μM) as substrate; FIG. 1E; compared to peptide 4
# T2 construct: made in house; host or cells: Sf9 cells
# T2 sequence (P06239 whole entry, the tested form may be a part): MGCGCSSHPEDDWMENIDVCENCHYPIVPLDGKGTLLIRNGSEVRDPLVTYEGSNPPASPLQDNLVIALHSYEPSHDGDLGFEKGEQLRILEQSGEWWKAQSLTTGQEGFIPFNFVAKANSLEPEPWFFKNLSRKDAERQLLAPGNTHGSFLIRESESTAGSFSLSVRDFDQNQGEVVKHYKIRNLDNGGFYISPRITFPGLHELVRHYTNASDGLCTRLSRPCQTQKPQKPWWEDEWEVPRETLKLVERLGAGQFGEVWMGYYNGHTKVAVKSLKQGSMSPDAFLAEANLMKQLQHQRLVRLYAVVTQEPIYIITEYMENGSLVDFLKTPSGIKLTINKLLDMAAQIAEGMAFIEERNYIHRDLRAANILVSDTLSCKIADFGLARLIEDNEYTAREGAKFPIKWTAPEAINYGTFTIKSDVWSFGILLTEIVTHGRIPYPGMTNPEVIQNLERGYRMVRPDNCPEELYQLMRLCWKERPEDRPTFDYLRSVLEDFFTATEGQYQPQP
# Protocol: FIG. 1E: A glutathione-S-transferase chimera of Lck was purified from Sf9 cells and assayed for the ability to phosphorylate myelin basic protein (5 μM) in the presence or absence of the same three peptides as used in FIG. 1D. The assay was carried out for 5 min at 30° C.
# as §1, with “assay. Lck-GST-fused protein was purified from Sf9 cells. Myelin basic protein was phosphorylated by Lck-GST-fused protein in the presence or absence of inhibitory peptides in the kinase buffer (5 mM MnCl2, 5 mM MgCl2, 25 mM Tris [pH 7.4]), 50 μM ATP, and 5 μCi [γ-^32P]ATP for 5 min at 30° C.” for “assay.”
# [4] = target: T3, Human ZAP-70-glutathione S-transferase (GST)-fused protein (human, UniProt P43403 1-619); assay: comparison of ZAP-70 inhibition by peptide 4 and peptide 6, tubulin as substrate
# T3 construct: the SH2 domains are spoken of as present; also called ZAP-70-GST fused protein; GST-ZAP-70; not shown: glutathione S-transferase (GST) fusion partner
# T3 sequence (looked up): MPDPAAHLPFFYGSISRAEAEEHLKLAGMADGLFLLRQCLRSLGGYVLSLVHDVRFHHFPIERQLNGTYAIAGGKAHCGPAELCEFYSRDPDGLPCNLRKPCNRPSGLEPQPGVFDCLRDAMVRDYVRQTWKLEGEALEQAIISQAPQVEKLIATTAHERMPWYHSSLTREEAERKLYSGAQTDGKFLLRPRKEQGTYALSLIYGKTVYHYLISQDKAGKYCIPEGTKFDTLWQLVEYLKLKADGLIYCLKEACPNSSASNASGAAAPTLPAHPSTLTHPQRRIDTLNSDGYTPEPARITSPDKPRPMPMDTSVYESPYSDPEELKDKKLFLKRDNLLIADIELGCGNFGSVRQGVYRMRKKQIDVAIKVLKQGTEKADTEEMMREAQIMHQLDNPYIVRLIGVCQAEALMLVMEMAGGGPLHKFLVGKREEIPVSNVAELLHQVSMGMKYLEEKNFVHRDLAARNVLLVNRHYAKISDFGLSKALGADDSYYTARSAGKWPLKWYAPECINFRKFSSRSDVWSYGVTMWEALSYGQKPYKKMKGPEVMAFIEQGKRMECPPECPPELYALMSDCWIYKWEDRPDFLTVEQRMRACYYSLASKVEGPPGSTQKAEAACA
# [5] = target: T4, peptide 1 (optimal ZAP-70 substrate, EEEEYFFII AKKK)
# T4 chain: EEEEYFFIIAKKK
# [6] = target: T5, peptide 2 (predicted optimal ZAP-70 binding peptide, KLILYLLLL AKKK)
# T5 chain: KLILYLLLLAKKK
# [7] = target: T6, peptide 3 (ELILYLLLL AKKK)
# T6 chain: ELILYLLLLAKKK
# [8] = substrate: CC[C@H](C)[C@H](NC(=O)[C@H](CC(C)C)NC(=O)[C@@H](N)CCC(=O)O)C(=O)N[C@@H](CC(C)C)C(=O)N[C@@H](Cc1ccc(O)cc1)C(=O)N[C@@H](CC(C)C)C(=O)N[C@@H](CC(C)C)C(=O)N[C@@H](CC(C)C)C(=O)N[C@@H](CC(C)C)C(=O)N[C@@H](C)C(=O)N[C@@H](CCCCN)C(=O)N[C@@H](CCCCN)C(=O)N[C@@H](CCCCN)C(=O)O; assay: Kinetic parameters for the phosphorylation of synthetic peptides by ZAP-70 (phosphocellulose assay); type: biochemical, Human; conditions: other: peptide as substrate, 100 μM ATP, 5 min at 30° C., average of three independent experiments
# Protocol: (§2) Human ZAP-70-glutathione S-transferase (GST)-fused protein was expressed in Sf9 cells using baculovirus. In this study, we used GST-ZAP-70 expressed in Sf9 cells without coexpression of Lck for library screening and kinase assays because the substrate selectivity of partially activated ZAP-70 is higher than that of fully activated ZAP-70 in peptide library screening for their specific substrate motifs (unpublished results). ZAP-70-GST fused protein (600 μg) was purified by using glutathione-agarose beads. […]
# as §1, with “Calif.). […]” for “Calif.).”
# [9] = substrate: CC[C@H](C)[C@H](NC(=O)[C@H](CC(C)C)NC(=O)[C@@H](N)CCCCN)C(=O)N[C@@H](CC(C)C)C(=O)N[C@@H](Cc1ccc(O)cc1)C(=O)N[C@@H](CC(C)C)C(=O)N[C@@H](CC(C)C)C(=O)N[C@@H](CC(C)C)C(=O)N[C@@H](CC(C)C)C(=O)N[C@@H](C)C(=O)N[C@@H](CCCCN)C(=O)N[C@@H](CCCCN)C(=O)N[C@@H](CCCCN)C(=O)O; assay: as above; type: biochemical, Human; conditions: other: peptide as substrate, 100 μM ATP, 5 min at 30° C., average of three independent experiments
# Protocol: as §2
# as §1, with “Calif.). […]” for “Calif.).”
molecule,measurement,setting,value
peptide 5: peptide 4 with deletion of the Lys at position −4 (LILYLLLL),ZAP-70 inhibitory effect (in words),[1],less effective as an inhibitor of both kinases
same,inhibitory ability on ZAP-70 (in words),[2],dramatically reduced the inhibitory ability
same,Lck inhibitory effect (in words),[3],less effective as an inhibitor of both kinases
"KLILYLLLL [peptide 6, identical to peptide 4 except for Tyr replacing the Phe]",ZAP-70 inhibitory effect (in words),[1],little effect on peptide binding to ZAP-70
KLILYLLLL (Identical to peptide 4 except for Tyr replacing the Phe) [peptide 6 (KLILYLLLL)],binding result,[4],binds
"ZAP-70-GST-fused protein (Homo sapiens) (protein, made in house; host or cells: Sf9 cells (baculovirus)) MPDPAAHLPFFYGSISRAEAEEHLKLAGMADGLFLLRQCLRSLGGYVLSLVHDVRFHHFPIERQLNGTYAIAGGKAHCGPAELCEFYSRDPDGLPCNLRKPCNRPSGLEPQPGVFDCLRDAMVRDYVRQTWKLEGEALEQAIISQAPQVEKLIATTAHERMPWYHSSLTREEAERKLYSGAQTDGKFLLRPRKEQGTYALSLIYGKTVYHYLISQDKAGKYCIPEGTKFDTLWQLVEYLKLKADGLIYCLKEACPNSSASNASGAAAPTLPAHPSTLTHPQRRIDTLNSDGYTPEPARITSPDKPRPMPMDTSVYESPYSDPEELKDKKLFLKRDNLLIADIELGCGNFGSVRQGVYRMRKKQIDVAIKVLKQGTEKADTEEMMREAQIMHQLDNPYIVRLIGVCQAEALMLVMEMAGGGPLHKFLVGKREEIPVSNVAELLHQVSMGMKYLEEKNFVHRDLAARNVLLVNRHYAKISDFGLSKALGADDSYYTARSAGKWPLKWYAPECINFRKFSSRSDVWSYGVTMWEALSYGQKPYKKMKGPEVMAFIEQGKRMECPPECPPELYALMSDCWIYKWEDRPDFLTVEQRMRACYYSLASKVEGPPGSTQKAEAACA",Km (µM) for phosphorylation of the synthetic peptide by ZAP-70,[5],40 µM
same,Km (µM) for phosphorylation of the synthetic peptide by ZAP-70,[6],26 µM
same,Km (µM) for phosphorylation of the synthetic peptide by ZAP-70,[7],188 µM
same,Km relative to peptide 2,[7],7-fold higher Km than peptide 2
same,Km,[8],188 µM
same,Km,[9],26 µM
